Test results as given in article PMC6007404 (Nucleic Acids Research, 2018).

How the values were obtained:
[1] = target: T1, MotAlinker/CTD (Enterobacteria phage T4, UniProt P22915 93-211); experiment: X-ray crystallography; cognate complexes A and C; further non-cognate copies B and D on the opposite face; 2.96 A; EMSA: 0.01 pmol 32P-DNA, 1.7 pmol MotA, native 12% PAGE in 1x TBE at 4 C, other conditions as in ref 14; SPR: biotin-DNA on neutravidin chip, buffer as in ref 2
T1 sequence: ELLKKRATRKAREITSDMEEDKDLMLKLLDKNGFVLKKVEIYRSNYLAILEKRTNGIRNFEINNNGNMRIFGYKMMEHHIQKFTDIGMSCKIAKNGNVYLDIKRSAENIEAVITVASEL

[2] = target: T2, MotA (Enterobacteria phage T4, UniProt P22915 1-211); experiment: EMSA; steep curve, value uncertain; EMSA: 0.01 pmol 32P-DNA, 1.7 pmol MotA, native 12% PAGE in 1x TBE at 4 C, other conditions as in ref 14; SPR: biotin-DNA on neutravidin chip, buffer as in ref 2
T2 sequence: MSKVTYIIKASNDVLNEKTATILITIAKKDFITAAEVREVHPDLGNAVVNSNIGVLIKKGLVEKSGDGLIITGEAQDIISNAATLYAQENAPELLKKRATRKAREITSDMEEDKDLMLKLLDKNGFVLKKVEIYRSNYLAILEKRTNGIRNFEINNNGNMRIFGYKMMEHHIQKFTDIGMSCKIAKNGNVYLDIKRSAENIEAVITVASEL

[3] = target: T2, MotA; experiment: EMSA; EMSA: 0.01 pmol 32P-DNA, 1.7 pmol MotA, native 12% PAGE in 1x TBE at 4 C, other conditions as in ref 14; SPR: biotin-DNA on neutravidin chip, buffer as in ref 2
[4] = target: the molecule itself; experiment: crystal structure; MotA^linker/CTD mixed with 22 bp MotA box DNA at 1.15:1 DNA:protein; 23% PEG 8000, 0.12 M sodium acetate, 0.1 M sodium cacodylate pH 6.5, 3% glycerol; space group P6_(1), 2.96 Å; four protein copies and two DNA duplexes in the asymmetric unit
[5] = target: T2, MotA; experiment: competition; EMSA vs labeled N6; EMSA: 0.01 pmol 32P-DNA, 1.7 pmol MotA, native 12% PAGE in 1x TBE at 4 C, other conditions as in ref 14; SPR: biotin-DNA on neutravidin chip, buffer as in ref 2

B1: 22-mer MotA box DNA (crystal) (dsDNA)
DNA 1: GAAGCTTTGCTTAATAATCCAC
DNA 2: GTGGATTATTAAGCAAAGCTTC
B1: binds [1].

B2: EMSA 19-mer GHMe/unmod (dsDNA)
DNA 1: AATTATTTGCTTTAGATTA
DNA 2: TAATCTAAAGCAAATAATT
modifications: beta-D-glucosyl-5-hydroxymethyl-dC at top C10
Work on B2 yielded a Kd [2] of ~20 nM.

B3: EMSA 19-mer unmodified (dsDNA)
DNA 1: AATTATTTGCTTTAGATTA
DNA 2: TAATCTAAAGCAAATAATT
Work on B3 yielded a Kd [3] of ~140 nM.

B4: MotA^linker/CTD (C-terminal domain and linker region of MotA, amino acids 93-211) (domain or fragment, bacteriophage T4, UniProt P22915 93-211, looked up)
chain: T1 sequence
B4: binds [4].

B5: EMSA mutant competitor (dsDNA)
DNA 1: AATTATTATACTTAGATTA
DNA 2: TAATCTAAGTATAATAATT
B5: no binding [5].
